In this test the target is T1, human gp100 peptide on H-2Db (mouse).
T1 peptide: KVPRNQDWL
The test can be described thus: multimer staining. How it is done:
Monomers of H2D^b mouse MHC class I molecules loaded with the human gp100 peptide KVPRNQDWL were ordered from the NIH tetramer facility. Monomers were conjugated to APC-Streptavidin (eBiosience) by incubation on ice. Cells were stained with tetramers for 1H in concentrations of 0.178 μg tetramers for 1 million cells in total volume of 50 μl of PBS supplemented with 0.5% BSA and 0.1% of Na-Azide.
After testing the expression and presence of the CD3-TCR complex on the cell surface it is essential to determine the capability of the TCR to bind the MHC-class I molecule presenting the gp100 peptide. In order to test binding capability of the TCR a tetramer staining assay was performed. The tetramer staining assay is designed for testing TCR-MHC binding and was previously described (Ogg and McMichael, 1998). Briefly, the tetramer is a complex of four monomers. Each monomer formed from a mouse MHC-class I molecule, H-2D^b, presenting the human gp100 peptide KVPRNQDWL. The H-2D^b molecule is conjugated to a biotin molecule. The tetramers are assembled by linking four biotin conjugated monomers to one molecule of APC-conjugated Streptavidin. The 293TREx-CD3-Pmel-TCR cells were stained with the tetramers and analyzed by FACS.

B1: Pmel-TCR (TCR, V domains shown)
Valpha: QQKVQQSPESLTVSEGAMASLNCTFSDRSSDNFRWYRQHSGKGLEVLVSIFSDGEKEEGSFTAHLNRASLHVFLHIREPQPSDSALYLCAVNTGNYKYVFGAGTRLKVIA
Vbeta: EAGVTQSPRYAVLQEGQAVSFWCDPISGHDTLYWYQQPRDQGPQLLVYFRDEAVIDNSQLPSDRFSAVRPKGTNSTLKIQSAKQGDTATYLCASSFHRDYNSPLYFAAGTRLTVT
Turning to B1, the binding result is on record as “recognises”.

Source of the values: patent US20140065111A1 (published 2014).
